The data set in a line: protein stability index of a GFP-peptide fusion (GPS, HEK-293T) (PSI 1-6); higher = more stable.
Where [1] appears, read: treatment: DMSO, c terminus: a fixed tail appended.
The mark [2] stands for this setting: treatment: MLN4924 1 uM, 8 h, c terminus: a fixed tail appended.

14 sequences from the supplement of paper PMC10567573 can be followed below.

± gives the standard deviation.
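Also: 24-mer peptide tiles fused after GFP, lentivirally expressed, FACS-sorted into six equal bins by GFP/DsRed ratio, decoded by Illumina sequencing, PSI is the read-weighted mean bin number.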

With YAATTTPFTPLHIKVKPKRVGIFL [TRIM39], the protein stability index turned out to be 2.52 ± 0.58 under setting [1] and 2.81 ± 1.1 under setting [2].
As for YAVTPLPWCPHLVAVCPIPAAGLD [HDAC6], the protein stability index amounted to 2.99 ± 0.49 under setting [1] and 2.33 ± 0.48 under setting [2].
Consider YDILPLSPVSRNRLAQVKRKILVL [CTDNEP1], for which the protein stability index is, setting by setting: under setting [1], 2.11 ± 0.36; under setting [2], 2.35 ± 0.22.
In the same order, the values of YFCYKAILEFAEKEGMVSSGQNLL [PTPN9] are 2.2 ± 0.31 and 2.38 ± 0.46.
In the same order, the values of YGGRSVAPQNSFSAKLAPHYFHSI [KCNK9] are 2.23 ± 0.11 and 2.3 ± 0.3.
In the same order, the values of YLEVLETMDNKKGRRYEAVKWMVV [CLCN6] are 2.4 ± 0.72 and 2.25 ± 0.28.
On to YLQKIEEFAEMVEREEEDDALDSE [KCNG1], for which the protein stability index is, setting by setting: under setting [1], 5 ± 0.51; under setting [2], 5.15 ± 0.17.
The matching figures for YPFQDSEPVLLFGKIRRGAYALPA [TRIB3]: 2.48 ± 0.27 and 2.66 ± 0.12.
The matching figures for YPFVLFYSKFHGLEMCVDARTFGN [KMT2E]: 2.87 ± 0.51 and 2.28 ± 0.33.
As for YPGIRAGRKNAAPLTIRPPTDWE [TRIM39], the protein stability index by setting is: (treatment: DMSO, c terminus: native) 3.44 ± 0.31; (treatment: MLN4924 1 uM, 8 h, c terminus: native) 3.9 ± 0.36.
Regarding YRSEDLLDVDTAAGGFQQRQGLKY [FBXO3], the protein stability index is, setting by setting: under setting [1], 4.25 ± 0.18; under setting [2], 4.18 ± 0.29.
The matching figures for YRTVVRPTYKVMYKIVTAREWRCC [EMID1]: 2.71 ± 0.79 and 2.38 ± 0.44.
On to YSHLGGIDYKTTTILLDGQRVKLK [RAB40A], for which the protein stability index is, setting by setting: under setting [1], 3.12 ± 0.29; under setting [2], 3.25 ± 0.23.
Turning to YYIDDVFHALVREIRRKEKEAVLA [RIT1], the protein stability index is 2.27 ± 0.32 under setting [1] and 1.94 ± 0.53 under setting [2].
